Target: T1, FGF-5 (Homo sapiens, UniProt P12034)
T1 construct: host or cells: FGF-5 added exogenously to NR6R-3T3 murine fibroblasts
T1 sequence (P12034 21-268): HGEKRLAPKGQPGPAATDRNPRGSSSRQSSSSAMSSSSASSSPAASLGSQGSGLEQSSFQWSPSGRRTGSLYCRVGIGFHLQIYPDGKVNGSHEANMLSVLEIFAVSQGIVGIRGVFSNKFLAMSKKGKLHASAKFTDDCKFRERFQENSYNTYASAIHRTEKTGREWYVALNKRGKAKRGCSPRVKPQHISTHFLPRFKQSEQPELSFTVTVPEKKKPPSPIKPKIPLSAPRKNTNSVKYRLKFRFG
Assay: BLA binding assay on FGF-5 coated plates, nitrocefin readout
Settings: purified peptide-BLA fusions at 0.1 nM, bound to FGF-5
Protocol: This Example describes secondary screening methods used to analyze FGF-5 binding npeptides. Individual clones were picked and grown up in 5 ml LB+5 ppm CMP overnight at 37° C. The cell pastes were then treated with 125μ of B-PER reagent (Pierce) for 30 min with slow mixing. COSTAR plates (96-well) were coated with 0.1 μg (100 μl of 1 μg/ml) FGF-5, carrier-free (R&D Systems #237-F5/CF, Lot #GQ18304A) with gentle rocking at 4° C. overnight, followed by blocking with Superblock blocking buffer (Pierce) for several hours at room temperature. Then, 100 μl B-Per treated supernatant from individual clones from pGV02-L were added to the FGF-5 coated plates. After one hour, plates were washed six times with PBS, 0.05% TWEEN®-20 and 200 μl of nitrocefin assay buffer containing 0.1 mg/ml nitrocefin (Oxoid) was added to measure residual bound beta-lactamase activity, using Abs490/min. Control wells contained pCB04 (See, FIG. 1C) beta-lactamase as a control. […] These clones were sequenced, and the results are provided in Table 1, where the first column is the name of the peptide, the second column is the nucleotide sequence and the third column is the amino acid sequence of the peptide:
Cell pastes were harvested from the 200 ml cell cultures described in Example 6, by centrifugation at 3,000×g for 10 min. The pastes were then treated with 25 ml of B-PER reagent (Pierce) for 40 min with slow mixing. The extract was separated by centrifugation at 20,000 g for 20 min. BLA activity of all liquid fractions was assayed using nitrocefin, and the concentration of fusion proteins in each fraction was calculated assuming the same specific activity as the WT enzyme. Fusion proteins were purified by IMAC chromatography (See, FIG. 4). The imidazole-eluted BLA-active fractions were pooled and the purity was found better than 95% as checked by SDS-PAGE. (See, FIG. 5).
The binding (BLA assay) was repeated using different peptide concentrations to see a dose response. To verify specific binding, the assay was also done using an irrelevant target. The results are shown in FIG. 6 and in Table 2, below.

Sequence	Percent Bound at 0.1 nM
CHYLLTNYC (synthesized FGF-5 binding peptide) [2H9, tested as BLA fusion]	5%
CRIHLAHKC (synthesized FGF-5 binding peptide) [2H10, tested as BLA fusion]	8%
CLTVLWTTC (synthesized FGF-5 binding peptide) [2E2, tested as BLA and BBI/BCE fusions]	7%
CEEIWTMLC (synthesized FGF-5 binding peptide) [1A6, tested as BLA and BBI/BCE fusions]	8%
